Experimental data published in article PMC9769108, “Tuning dynamic DNA- and peptide-driven self-assembly in DNA–peptide conjugates†” (Chemical Science, 2022).
Where no end group is shown, it is not given here.

Target: the molecule itself
Experiment: dynamic light scattering + atomic force microscopy; TAMg buffer, room temperature, aged 0 to 28 days; total peptide 10 μM; CD alongside

B1: ILVAGK, β-turn-forming hexapeptide (parent peptide) (peptide)
peptide: ILVAGK
modifications: not fully specified (N-terminus, C-terminus)
notes: The form used for conjugation is N3-ILVAGK-NH2; also called pure ILVAGK
B1: binds.
